Data as given in US20230242675A1 (SHANGHAI EPIMAB BIOTHERAPEUTICS, published 2023).

T1: human TGFβ2 (human, UniProt P61812 303-414)
T1 construct: also called TGFβ isoform 2; TGFβ2 (Cat. No. CJ79, Novoprotein)
T1 sequence (looked up): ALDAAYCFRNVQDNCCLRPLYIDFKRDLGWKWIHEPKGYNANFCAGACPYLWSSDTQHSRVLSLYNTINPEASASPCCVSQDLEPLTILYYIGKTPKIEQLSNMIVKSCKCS

B1: EM0005-mAb87 scFv (scFv)
scFv: EVQLQQSGPELVKPGASVKISCKASGYSFTDYYINWVKQSPEKSLEWIGETIPNTGGTTYNQKFKAKATLTVDKSSSTAYMQLKSLTSEDSAVYYCARYQSGSPFAYWGQGTPVTVSSGGGGSGGGGSGGGGSDIVMTQSQKFMSTTVGDRVSITCKASQNVGTAVAWYQQKPGQSPKLLIYSASNRYTGVPDRFTGSGSGTDFTLTISNMQSEDLADYFCQQHYSTPYTFGGGTKLEIK
notes: Tested as bacterial culture supernatant and as scFv-displaying phage in FACS; tags of the pCAN phagemid not spelled out for library clones; also called 4E8
B2: EM0005-mAb90 scFv (scFv)
scFv: QVQLKQSGAELVRPGSSVKMSCKTSGYTFTSHSINWVKQRPGQGLEWIGYMYIGNGYTEYNEKFKGKATLTSDTSSTTAYMQLSSLTSEDSAIYFCAKITPVVAPYVMDYWGQGTSVTVSSGGGGSGGGGSGGGGSDIVMTQTHKFMSTSVGDRVSITCKASQDVGTAVAWYQQKPGQSPKLLIYWASTRHTGVPDRFTGSGSGTDFTLTISNVQSEDLADYFCQQYSSYPYTFGGGTKLELK
notes: Tested as bacterial culture supernatant and as scFv-displaying phage in FACS; tags of the pCAN phagemid not spelled out for library clones; also called 6C11
B3: EM0005-mAb86 scFv (scFv)
scFv: QVQLQQSGAELVRPGSSVKMSCKTSGYTFTTYGINWVKQRPGQGLEWIGYIYIGNGYTEYNEKFKGKATLTSDPSSRTAYMQLSSLTSEDSAIYFCARDLMVIAPKTMDYWGQGTSVTVSSGGGGSGGGGSGGGGSDIQMNQSHKFMSTSVGDRVSITCKASQDVGTAVAWYQQKPGQSPKLLIYWASTRHTGVPDRFTGGGSGTDFTLTISNVQSEDLADYFCQQYSSYPYTFGGGTKLEMK
notes: Tested as bacterial culture supernatant (detected with anti-c-myc antibody; tags of the pCAN phagemid not spelled out for library clones) and as scFv-displaying phage in FACS; also called 3A3
B4: FIT1012-3a TGFβ/PD-L1 bispecific binding protein (bispecific antibody, human IgG1, kappa)
heavy: not shown
chain: TIPPHVQKSVNNDMIVTDNNGAVKFPQLCKFCDVRFSTCDNQKSCMSNCSITSICEKPQEVCVAVWRKNDENITLETVCHDPKLPYHDFILEDAASPKCIMKEKKKPGETFFMCSCSSDECNDNIIFSEEYNTSNPDASTKGPSVFPLAPSSKSTSGGTAALGCLVKDYFPEPVTVSWNSGALTSGVHTFPAVLQSSGLYSLSSVVTVPSSSLGTQTYICNVNHKPSNTKVDKKVEPKSC
light: DIQMTQSPSSVSASVGDRVTITCKASQDVGTAVAWYQQKPGKAPKLLIYWASTRHTGVPDRFTGSGSGTDFTLTISSLQPEDFATYYCQQYSSYPYTFGGGTKVEIKRTVAAPSVFIFPPSDEQLKSGTASVVCLLNNFYPREAKVQWKVDNALQSGNSQESVTEQDSKDSTYSLSSTLTLSKADYEKHKVYACEVTHQGLSSPVTKSFNRGEC
notes: Six-chain protein; anti-PD-L1 moiety from HuEM0005-86-6 with G55A; four TGFβR2(ECD) traps
B5: FIT1012-4a TGFβ/PD-L1 bispecific binding protein (bispecific antibody, human IgG1, kappa)
heavy: not shown
chain: B4 chain
light: not shown
notes: Six-chain protein; anti-PD-L1 moiety from HuEM0005-87-1; four TGFβR2(ECD) traps

Legend:
[1] = biological target: T2, human PD-L1/His fusion protein (human, UniProt Q9NZQ7 19-239); assay: RBA ELISA: coated PD-L1/His, competitor biotinylated PD-1/Fc
Procedure: Anti-PD-L1 scFv supernatants were tested for ability to block PD-L1/PD-1 interaction. […] The mixtures were added to individual wells and incubated at room temperature for 30 minutes. […] Bound signal was developed by Streptavidin-HRP (Cat. No. S2468, Sigma) and read by a plate reader at a wavelength of 450 nm. A low signal, as with the positive control, indicated blocking activity.

[2] = biological target: T3, human PD-L1 on the cell surface (CHO-K1 cells stably expressing human PD-L1) (human, UniProt Q9NZQ7 19-290); assay: FACS, scFv-phage on CHO-K1/PD-L1 cells
T3 construct: whole, on cells; Also used here for PD-L1 on the monocyte-derived dendritic cells of the MLR assay (functional rows); also called CHO-K1/PD-L1; CHOK1-PD-L1
Procedure: After characterization of ability to bind PD-L1 in ELISA and RBA ELISA, the PD-L1-binding positive scFv clones were sequenced. […] Briefly, 2×10⁵ cells of the CHO-K1/PD-L1 cell line stably expressing huPD-L1 described above were added to round-bottom wells of a 96-well plate (Cat. No. 3799, Corning). A phage supernatant from an overnight culture that had been rescued by hyper phage was added. The mixture of CHO-K1/PD-L1 cells and phage supernatant in each well was diluted with 50 μl of FACS buffer (PBS with 2% FBS). The anti-PD-L1 scFv-phages were detected with murine anti-M13 phage antibody (Cat. No. 11973-MM05, Sino biological) and then with Donkey anti-Mouse IgG (H+L) Highly Cross-Adsorbed, Alexa Fluor® 488 conjugate, secondary antibody (Cat. No. A21202, Invitrogen). Cell fluorescence was monitored using a flow cytometer.

[3] = biological target: T2, human PD-L1/His fusion protein; assay: BLI Octet RED96, single concentration of human PD-L1-his
Procedure: Briefly, antibodies were characterized for affinities and binding kinetics by biolayer interferometry (BLI) using an Octet® RED96 sensor device (Pall ForteBio LLC). Antibodies were captured by anti-hIgG Fc Capture (AHC) Biosensors (Pall) at a concentration of 100 nM for 30 seconds. Sensors were then dipped into running buffer (1×, pH7.2, PBS, 0.05% Tween 20, 0.1% BSA) for 60 seconds to check baseline. Binding was measured by dipping sensors into a single concentration of recombinant human PD-L1-his protein. Dissociation was followed by dipping sensors into running buffer for 1200 seconds. The association and dissociation curves were fitted to a 1:1 Langmuir binding model using the manufacturer's data analysis software (ForteBio Data Analysis software, Pall ForteBio LLC).

[4] = biological target: T4, cynomolgus (cyno) PD-L1/His fusion protein (cynomolgus, UniProt G7PSE7 19-239); assay: ELISA, scFv supernatant on cynomolgus PD-L1
T4 construct: also called cynomolgus PD-L1; not shown: His tag

[5] = biological target: human PD-L1/Fc Fusion Protein (human); assay: ELISA, scFv supernatant on coated human PD-L1/Fc
Procedure: Two hundred (200) single bacterial clones from each group of the third panning round were isolated and grown in culture to express a single scFv monoclonal antibodies (mAbs). The scFv mAbs were expressed in the bacterial culture supernatants, which were primarily screened by ELISA. […] 20 ng of human PD-L1/Fc protein in 100 μL PBS, pH 7.4, were directly coated in each well of a 96-well plate. An HRP-linked anti-c-myc antibody (Cat. No. Ab1261, Abcam) and TMB reagent were used to detect and develop the ELISA signal, which was read using a plate reader (SpectraMax® Plus 384; Molecular Devices) at a wavelength of 450 nm.

human TGFβ2 = biological target: T1, human TGFβ2; assay: ELISA: human TGFβ2 coated (1 µg/ml), binding protein titrated 0.0006-10 nM, anti-human IgG Fc-HRP, OD450
Procedure: (§1) Accordingly, each of the wells of the ELISA microplates provided a reaction mixture to test the ability of a particular binding protein at a particular concentration to bind to a particular TGFβ isoform. […] Plates were washed three times in washing buffer (PBS containing 0.05% Tween 20) and blocked for 1 hour at 37° C. with 200 μl per well of blocking buffer (1% BSA in PBS containing 0.05% Tween 20). […] The wells containing the various binding mixtures were incubated at 37° C. for 1 hour to permit binding to TGFβ protein on the surface of the wells. Thereafter, the wells were washed four times with washing buffer, and anti-human IgG Fc HRP (Sigma, Catalog No. A0170) was diluted 1:10000 and added to the wells at 100 μl per well to detect binding protein that was bound to TGFβ protein present on the surface of a well. The plates were incubated for 1 hour at 37° C. and washed four times with washing buffer. 100 μl of tetramethylbenzidine (TMB) chromogenic solution were added per well. Following color development, the reaction was stopped with 1 N HCl, and absorbance at 450 nm (OD450) was measured on a VARIOSKAN™ LUX microplate reader (Thermo Scientific™).

[6] = biological target: T5, biotinylated human PD-L1 protein (ACROBiosystems, H82E5) (human, UniProt Q9NZQ7 19-238, biotinylated (site not stated)); assay: dual-binding ELISA: human TGFβ3 coated, 5 nM binding protein bound to it, biotinylated human PD-L1 titrated 0.0006-10 nM (axis labelled Ab (nM)), streptavidin-HRP, OD450; the EC50 is of the titrated PD-L1
T5 construct: also called biotinylated PD-L1
Procedure: (§2) Briefly, ELISA plates were incubated overnight at 4° C. with 100 μl of a human TGFβ isoform diluted in PBS buffer, pH 7.4, at 1 μg/ml, to allow the human TGFβ isoform to coat (adsorb to) the surface of the wells. Plates were washed three times in washing buffer (PBS containing 0.05% Tween 20) and blocked for 1 hour at 37° C. with 200 μl per well blocking buffer (1% BSA in PBS containing 0.05% Tween 20). […] The wells were washed four times with washing buffer, and Streptavidin-HRP (Merck, RABHRP3) was diluted 1:10000 and added to the wells at 100 μl per well. The plates were incubated for 1 hour at 37° C. and washed four times in washing buffer. 100 μl of tetramethylbenzidine (TMB) chromogenic solution were added per well.

[7] = biological target: T2, human PD-L1/His fusion protein; assay: BLI Octet Red, binding protein on AHC sensor, PD-L1-his in solution
Procedure: Sensors were then dipped into running buffer (1×pH 7.2 PBS, 0.05% Tween 20, 0.1% BSA) for 60 seconds to check baseline. Binding was measured by dipping sensors into a series diluted concentration of recombinant human PD-L1-his protein. Dissociation was followed by dipping sensors into running buffer for 1200 seconds. The association and dissociation curves were fitted to a 1:1 Langmuir binding model using ForteBio Data Analysis software (Pall). The equilibrium dissociation constant KD (M) of the reaction between antibodies and related target proteins was then calculated from the kinetic rate constants using the formula KD=koff/kₒₙ.

human TGFβ1 = biological target: T6, human TGFβ1 (human, UniProt P01137 279-390); assay: ELISA: human TGFβ1 coated (1 µg/ml), binding protein titrated 0.0006-10 nM, anti-human IgG Fc-HRP, OD450
T6 construct: also called TGFβ isoform 1; TGFβ1 (Cat. No. CA59, Novoprotein)
Procedure: as §1

[8] = biological target: T5, biotinylated human PD-L1 protein …; assay: dual-binding ELISA: human TGFβ2 coated, 5 nM binding protein bound to it, biotinylated human PD-L1 titrated 0.0006-10 nM (axis labelled Ab (nM)), streptavidin-HRP, OD450; the EC50 is of the titrated PD-L1
Procedure: as §2

T3 sequence (Q9NZQ7 19-290): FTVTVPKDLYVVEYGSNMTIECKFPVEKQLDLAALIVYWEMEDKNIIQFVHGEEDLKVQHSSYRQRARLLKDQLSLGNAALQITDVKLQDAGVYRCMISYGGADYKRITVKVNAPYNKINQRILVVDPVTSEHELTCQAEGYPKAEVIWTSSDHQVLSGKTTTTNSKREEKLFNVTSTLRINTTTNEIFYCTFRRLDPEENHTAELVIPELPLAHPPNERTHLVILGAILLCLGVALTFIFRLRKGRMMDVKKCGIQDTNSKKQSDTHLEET
T5 sequence (Q9NZQ7 19-238 limits assumed): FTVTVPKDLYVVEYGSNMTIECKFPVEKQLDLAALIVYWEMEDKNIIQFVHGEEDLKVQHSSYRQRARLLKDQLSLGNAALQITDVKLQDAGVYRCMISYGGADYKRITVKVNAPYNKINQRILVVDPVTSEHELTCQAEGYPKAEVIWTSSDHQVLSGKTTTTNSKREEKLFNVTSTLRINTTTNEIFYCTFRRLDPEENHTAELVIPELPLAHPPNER
T2 sequence (Q9NZQ7 19-239 limits assumed): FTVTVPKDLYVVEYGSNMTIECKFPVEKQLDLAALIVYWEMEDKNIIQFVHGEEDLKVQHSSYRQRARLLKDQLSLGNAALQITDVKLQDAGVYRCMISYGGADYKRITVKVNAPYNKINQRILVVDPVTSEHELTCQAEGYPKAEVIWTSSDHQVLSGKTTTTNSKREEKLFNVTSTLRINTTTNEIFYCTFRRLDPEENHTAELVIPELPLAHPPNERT
T4 sequence (G7PSE7 entry or part of it): as the sequence (Q9NZQ7 19-239 limits assumed) above, with A33T, A34S, S62N, R68Q, Q82R, F173L, T185A, T192I, H215L counted along it
Chain of human PD-L1/Fc Fusion Protein (human) (chain, as listed by the source limits assumed): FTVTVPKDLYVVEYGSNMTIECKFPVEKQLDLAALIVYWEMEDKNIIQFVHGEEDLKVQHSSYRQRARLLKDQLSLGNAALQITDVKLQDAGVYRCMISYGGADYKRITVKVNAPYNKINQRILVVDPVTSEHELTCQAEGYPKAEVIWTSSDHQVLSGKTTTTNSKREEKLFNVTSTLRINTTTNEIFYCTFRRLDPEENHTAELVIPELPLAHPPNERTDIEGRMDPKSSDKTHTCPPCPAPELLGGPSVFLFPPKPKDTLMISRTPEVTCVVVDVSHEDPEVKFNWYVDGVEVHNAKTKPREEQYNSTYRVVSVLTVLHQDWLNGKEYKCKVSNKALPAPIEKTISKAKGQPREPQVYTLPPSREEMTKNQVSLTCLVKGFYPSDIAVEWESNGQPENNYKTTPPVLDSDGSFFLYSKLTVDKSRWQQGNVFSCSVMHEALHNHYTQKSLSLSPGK
T6 sequence (P01137 279-390 limits assumed): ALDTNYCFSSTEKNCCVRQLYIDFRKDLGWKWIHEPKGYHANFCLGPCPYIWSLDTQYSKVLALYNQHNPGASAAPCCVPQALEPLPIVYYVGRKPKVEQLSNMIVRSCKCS

Binder | RBA (% inhibition) [1] [%] | Binding to CHOK1-PD-L1 (X Geo Mean) [2] | koff [3] [s⁻¹] | EC50 [4] [nM] | EC50 [5] [nM] | EC50 (human TGFβ2) [nM] | EC50 [6] [nM] | Kd [7] [nM] | koff [7] [s⁻¹] | kon [7] [M⁻¹ s⁻¹] | EC50 (read off the curve) (human TGFβ1) [nM] | EC50 [8] [nM] | EC50 (human TGFβ1) [nM]
B1 | 99.8 | 49.7 | 0.000206 | 4 | 3.02 |  |  |  |  |  |  |  | 
B2 | 100 | 36.6 | 0.000232 | 4 |  |  |  |  |  |  |  |  | 
B3 | 100 | 27.6 | 0.000197 | 4 | 1.19 |  |  |  |  |  |  |  | 
B4 |  |  |  |  |  | 0.525 | 0.205 | 0.609 | 0.000344 | 564000 | ~0.4 | 0.205 | 
B5 |  |  |  |  |  | 0.288 | 0.114 | 1.3 |  |  |  | 0.114 | 0.29
